In the DeepSol protein solubility set:

test: soluble on expression in E. coli; label from the status in PepcDB or PDB records

Sequence | soluble on expression in E. coli
MGSDKIHHHHHHMTQNVIEMKEITKKFGDFVANDHINLTVEKGEIHALLGENGAGKSTLMNMLAGLLEPTDGQIFINGQPVTIDSPSKSSQLGIGMVHQHFMLVEAFTVAENIVLGNETTQNGVLDIKTAAKEIKELSEKYGLSVNPNAKISDISVGAQQRVEILKTLYRGADILIFDEPTAVLTPSEIKELMTIMKSLVKEGKSIILITHKLDEIRAVADKVTVIRRGKSIETVPVAGASSQQLAEMMVGRSVSFRTEKKEANPTDIILSVKDLVVEENRGGVLAVKNLSLDVRAGEIVGIAGIDGNGQSELIQAITGLRKVTSGQIVIKGKDVTKFSSRQITELSVGHVPEDRHRDGLVLDMTMAENLALQTYYKEPLSHKGILNFAKIKEYARQLMTEFDVRGAGEHVLARGFSGGNQQKAIIAREVDRDPDLLIVSQPTRGLDVGAIEYIHKRLIEERDKGKAVLVVSFELDEILNLSDRIAVIHDGKIQGIVKPDQTNKQELGILMAGGKIEKEERDV | not soluble
MSLSSAYDRKNLEKKNRELRELNDKIGDVAKTFETLQLELYNDLIKEFSKDLTSWNATIDPDNTIRFKEPDVLFDSGKSQVKERFKVVLDDFFPRYVKILSQEKYKGDIEEIRIEGHTSSEWLNAKTLEERYLGNAALSQARAFEVLKYCFALERIKGEQDWLIKVLRANGLSFAKPLDSEEHSRRVEFRTLTRSHQKMLKILDLSKEGHHHHHH | soluble
MKPLAQLLLFLLQFQKGNLVSQSSSTPLMVNGVLGESVTLPLEFPAGERIQFITWLCNGTSFAFLEPYEGKSPKIYVTHPKWQKRLSFTQSYSPQLSNLEMENIGFYSAQIATETSAKLSSYTLRIFKQLPRPQVRVDSIISENGICNAILRCSVEEGGETITYEWTSMGPGAAVSHVGSVLYGSWSLHDLDWIYTCTALNPVSYSNSTLTLAAQLCASSKAAEGTYCPVKWIFLGNRLLLLVFLGVLRTWHIQAQVLSKPLRPNSG | not soluble
MAIVLLVLHVCTGLRGSPVSGRVRMAVDSGIYLAPCSNNDAQEHLKRTVINGVDRDDYGQYTNVGFGDSVSIWGVKGGNESHWQDIDAGDYLFFYTGDETYSQVAEVLATDQNEGLAEHLWPGFEDTWEFIIYLNEPIPVNIDSNEIADYAGYKQNYILGFQSLRGSAVDEINDEYGSIEGYINANRTDGNHIQTSGGSQDPDEGDDSVVDEVLDEADRDEEAYANIARQLEEVGQVVFYGPPGTGKTYNAQQFARWWLHNLQSEPRESQVRSVTFHPSYTYEDFIEGLTANATENSVSYDIKPGKFKAICEDARVAYQETGPNEEPPRYVLLIDEINRGNLAQIFGETITLLEEDKRGTLHVDLAHSGGSFTIPPNLYVIGTMNTADRSVALVDAALRRRFRFIDFPPDYGVARSRFGFDTEYDLTSAARGERSDLEQLQALSIQAVEQLNETIIELPDLGKGKQIGHSYLLVDPDDEQALVDAWRYEILPLLEEYFYGQLSRIRQELFNQNGDSLVDWEREQIKDFDPETLRESLQAIVNAGLEHHHHHH | not soluble
SSALPRTLGELQLYRVLQRANLLSYYETFIQQGGDDVQQLCEAGEEEFLEIMALVGMATKPLHVRRLQKALREWATNPGLFSQPVPAVPVSSIPLFKISETAG | soluble
MKKLVLIGGGYGNMRVLHRLLPNQLPDDVSITLIDRNPYHCLKTEYYALAAGTISDHHIRVSFPEHPRLDVQYGDITSIDIVQKQVLFQDREPISYDDAIIGLGCEDKYHNVPGAPEFTYSIQTIDQSRETYQKLNNLSANATVAIVGAGLSGVELASELRESRDDLNIILFDRGNLILSSFPERLSKYVQKWFEEHGVRIINRANITKVEEGVVYNHDDPISADAIVWTAGIQPNKVVRDLDVEKDAQGRIVLTPHHNLPGDEHLYVVGDCASLPHAPSAQLAEAQAEQIVQILQKRWNGEALPESMPQFKLKGVLGSTRK | soluble
MAKVSLEKDRIKFLLVEGVHQSAVDNLRAAGYSNIEYHKGALDAESLKASIRDAHFIGIRSRTHLSEDVFAAAEKLVAVGCFCIGTNQVDLKAATKRGVPVFNAPFSNTRSVAEMVLGELLLMFRGIPSANAKAHRGEWNKLAVGSFEARGKKLGIIGYGHIGTQLGILAESIGMKVFFYDIENKLSLGNAQQVRQLSDLLNMSDVVSLHVPENHTTKNMIGAEQLAQMKPGALLINASRGTVVDIPALCDALSSNHLSGAAIDVFPEEPATNKDPFNSPLCEFDNVLLTPHIGGSTQEAQENIGDEVAGKLAKYSDNGSTLSAVNFPEVSLPAHGDNTRRLLHIHENRPGILTSINTIFAEQNVNIAAQYLQTSADIGYVVIDVETDDADNAEKALQAMKAIPGTIRARLLY | not soluble
MGSDKIHHHHHHMYRLMDRQQMPFLFRFLSDSELYAFKDGQIISTFNKCGLFFCRKGNVEVSLEDKHFQINPGDVYIYMASTLVHLLHKSEDAEGVMVEVDLDYIIPIVNRVINVENQLFMRKHPCISLSDKQRAHLEYLLDNLRERIEAEDVQEVNLQQQRLTLELIKSMGQTFCYEILNMYFANQPMQPLPQNKKDVIFQNFMLALFRLYRKERDVAYYARMQHITPRYFSTIIKEKSGNSALQWIVQMVITEAKQLLEGSDLSIKEIADQLNFPTQSFFGKYFKQYVGISPKEYRKGKLRIKDGI | not soluble
MRTDLALDFSVNKENKTITIKREFAAVRAIVWEAFTRAEILDQWWAPKPWKAKTKSMDFKEGGTWLYAMVGPNGEEHWSICEYAIIKPIERFTGKDGFTDASGKLNTEMPRSNWDMRFIDKGEITEVQYHISYDDVAQLEATIQMGFKEGITMAMENLDELLVSGKKLEHHHHHH | soluble
MSNKLDGINKMITAKHKQMDDLYDEKREVKALIDESDELNHSIEQLYQHLGDRYHSSNMASRMEQFRDEFHFAKRRSTEALYEQQQQIQHGIRKAEEEMIDLEMRRNVEIETVTKEENKWKQLEHHHHHH | soluble
MKKVLFLLFLVFSFGVYSATFSDSDKKEILKQFSEFQKAVKKKDAAAVSRYISYPLKEGNTKEVIWKNSSELAKDLKDKETYTFYSINELKIDSNANKIINVEERLLEKNGEFGDEFLSVTGRFLDTDDVEGTIYTGIDKPHFVVAVSVYDDMFEGGTYYLFSFENKKLELVSIFRLP | not soluble
MKSNKNEFLKLLTAYQGIIHKVNRIYFRSEADREDNFQETVYQLWRSFPALQNKEKPASWIYTVAINTSISKVRKDSRIEFRDSPPDGEPVDPWEQQEQDENWQRLVNALQKLNEIDKSIMLLYMEDYSYEEIAGIVGISSSAVGVKIHRLKGQLQKQFKK | not soluble
MGSDKIHHHHHHAQRGKRAMNRIDREVQETVFIPKGTWMAGGTVSYSEHDEGNLNFLVLKNVEGKGYNFGVSPYVGYFFRNNISAGMRFAYHRDYLDLKNFELNLGEDFNISLDNLYYLEHKYEVSGFLRTYMPIGRSKIFGLFNEARLTYGYGTGKNSTGTGATYDGSYQTAQNLQIGIAPGMTAFITDWSAVEVSVGVMGFDFKWIDQKTNQIEEGHQRVSSGNFKINLFSINIGMTFYL | not soluble
MGHHHHHHSHGGSRTGPVSLQGDPKQAPWSSSQSNSSRKTLFLSLCPPFPTQPQIHLHFTEHRASSHQGGPFKLQICLSSLYSNLLLHCHYREVHHMSGHRTESAGGHLFLPQDLRWKSPGLGVFAVQSVYELARRHNVSPFYSGPP | not soluble
MAYITYQQYLDLYGTCPISEEEFPVYAGLASDMIDSITRYRIVEGGGISALPSILQTLVQKAAAAQVLYFTQIGLETVLTGQAGQSFTVGKVSVSGGALSSTTTKPGALMVSPFALSLLEQTPLMERGVHVCSDRFLNPFWGILEHHHHHH | soluble
MSDVTGDLAAVSEAKGGSDAARISEVKAWLTSQFEAVGKEVPNFEYTHRSITHLYNLATASQAKSQAATIVANDFRLKASEYRAQAARIREILESAGMSQESLPSNVVSSAQVLANVANLLNIRDTELSRILAQLEDDVVPCESQMENWKTNLEVMAVKEEQYIQQYKKYEMLLNRVGYTPKISHRELVEMAEHRKELDKMTKPVLDTLRSYQDLPPDKALAALAIEDKKRQFTAAEKYLEEVLQSALETNDE | soluble
SPEALRIGYQKGSIGMVLAKSHQLLEKRYPESKISWVEFPAGPQMLEALNVGSIDLGSTGDIPPIFAQAAGADLVYVGVEPPKPKAEVILVAENSPIKTVADLKGHKVAFQKGSSSHNLLLRALRQAGLKFTDIQPTYLTPADARAAFQQGNVDAWAIWDPYYSAALLQGGVRVLKDGTDLNQTGSFYLAARPYAEKNGAFIQGVLATFSEADALTRSQREQSIALLAKTMGLPAPVIASYLDHRPPTTIKPVNAEVAALQQQTADLFYENRLVPKKVDIRQRIWQPTQLEGKQLEFRVPGNENLYFQ | soluble
MVGYSSKLIFVSMITRHGDRAPFANIENANYSWGTELSELTPIGMNQEYNLGLQLRKRYIDKFGLLPEHYVDQSIYVLSSHTNRTVVSAQSLLMGLYPAGTGPLIGDGDPAIKDRFQPIPIMTLSADSRLIQFPYEQYLAVLKKYVYNSPEWQNKTKEAAPNFAKWQQILGNRISGLNDVITVGDVLIVAQAHGKPLPKGLSQEDADQIIALTDWGLAQQFKSQKVSYIMGGKLTNRMIEDLNNAVNGKSKYKMTYYSGHALTLLEVMGTLGVPLDTAPGYASNLEMELYKDGDIYTVKLRYNGKYVKLPIMDKNNSCSLDALNKYMQSINEKFQKHHHHHH | soluble
MSLKELEEIRKEIDEVDKIITELFEKRMNLVMEVAEYKEKNSIPVSDSKREKKVIDKNIGYLKNKEYSEVLKEFYINFMNLSKKLERKRIYNEEKTSVNTSIYGLIGEKLGHSHSSYIHKLIFEKVGIKGIYNLFEVPKEKLKESVDTFKIIKCGGLNVTIPYKVEVMKELYEISEKARKIGAVNTLKFSREGISGFNTDYIGFGKMLSKFRVEIKNNICVVLGSGGAARAVLQYLKDNFAKDIYVVTRNPEKTSEIYGEFKVISYDELSNLKGDVIINCTPKGMYPKEGESPVDKEVVAKFSSAVDLIYNPVETLFLKYARESGVKAVNGLYMLVSQAAASEEIWNDISIDEIIVDEIFEVLEEKIKSEGHHHHHH | soluble
MGSDKIHHHHHHMTPEMYADKYREYASAMPTFQKSIFDQNPIYKIASGPDGNKPIERVKWTKDFLKAFSRYRQPGINAMDLHFYNWNIEHESDTPTDFGEDDWYRVINGTRELDQIINQQADLIKEGLQNIPQPESSLDHRLDRIDLVVGEWGNWHRTAFTAKPALKQQVTMRDAISTALMLDILQKNSDKVTMACVAQTINVLNALILTEGDQTILTPNYDVFMMYKAHRGNSALKIQTNQDQKNVYTFASKKDGEIILDVINANLNDQVKLTVELNREIESISKDFLQSDRPTDFNSSDNPDLIRMQQTEVKDFSKGEITLELSPASVNVFHIKTID | not soluble
MNIHKALCLSAGVSVALISLAAQAAETVTIATVNNGDMIRMQRLSKIFEQQHPDIKLNWVVLEENVLRQRLTTDIATQGGQFDVLTIGTYETPLWGAKQWLEPITDLAPEYDLEDIFPSVRQGLSVKNTLYALPFYGESTITYYRTDLFKQAGLSMPERPTWTQLGEFAAKLHQPDKGVYGMCLRGKAGWGENIALLSTMANAFGARWFDEHWKPELNSPEWANAANFYVNTLKNYGPPGVSSNGFNETLALFNSGKCALWVDASVAGSFTTDKEQSKVVDSVGFAPAPVEVTDKGSSWLYAWSLAIPATSRHKDAAKAFITWATSKAYIQLVAEKDGITNVPPGTRTSTYSEAYLKAAPFAKVTLQMMQHADPAQPSAKPVPYVGIQYVTIPEFQAIGTSVGKLFSAAVTGQTTTEQALTAAQAVTEREMKRAGYPK | not soluble
